± gives the standard deviation of the averaged measurements.
Assay: total protein half-life in vivo (active degradation + dilution); higher = more stable protein
[1] = E. coli NCM3722 delta-clpP delta-lon delta-hslV, growth: N-lim chemostat, doubling time 6 h
[2] = E. coli NCM3722 delta-clpP, growth: N-lim chemostat, doubling time 6 h
[3] = E. coli NCM3722 delta-hslV, growth: N-lim chemostat, doubling time 6 h
[4] = E. coli NCM3722 delta-smpB, growth: N-lim chemostat, doubling time 6 h
[5] = wild type E. coli NCM3722, growth: N-lim chemostat, doubling time 6 h
[6] = wild type E. coli NCM3722, growth: N-lim chemostat, doubling time 12 h
[7] = wild type E. coli NCM3722, growth: P-lim chemostat, doubling time 6 h
[8] = wild type E. coli NCM3722, growth: P-lim chemostat, doubling time 12 h
[9] = wild type E. coli NCM3722, growth: C-lim chemostat, doubling time 3 h
[10] = wild type E. coli NCM3722, growth: C-lim chemostat, doubling time 6 h
[11] = wild type E. coli NCM3722, growth: C-lim chemostat, doubling time 12 h
[12] = E. coli NCM3722 delta-lon, growth: N-lim chemostat, doubling time 6 h

Row | Sequence | total protein half-life in vivo [1] [h] | total protein half-life in vivo [2] [h] | total protein half-life in vivo [3] [h] | total protein half-life in vivo [4] [h] | total protein half-life in vivo [5] [h] | total protein half-life in vivo [6] [h] | total protein half-life in vivo [7] [h] | total protein half-life in vivo [8] [h] | total protein half-life in vivo [9] [h] | total protein half-life in vivo [10] [h] | total protein half-life in vivo [11] [h] | total protein half-life in vivo [12] [h]
1 | MQQPVVRVGEWLVTPSINQISRNGRQLTLEPRLIDLLVFFAQHSGEVLSRDELIDNVWKRSIVTNHVVTQSISELRKSLKDNDEDSPVYIATVPKRGYKLMVPVIWYSEEEGEEIMLSSPPPIPEAVPATDSPSHSLNIQNTATPPEQSPVKSKRFTTFWVWFFFLLSLGICVALVAFSSLDTRLPMSKSRILLNPRDIDINMVNKSCNSWSSPYQLSYAIGVGDLVATSLNTFSTFMVHDKINYNIDEPSSSGKTLSIAFVNQRQYRAQQCFMSIKLVDNADGSTMLDKRYVITNGNQLAIQNDLLESLSKALNQPWPQRMQETLQKILPHRGALLTNFYQAHDYLLHGDDKSLNRASELLGEIVQSSPEFTYARAEKALVDIVRHSQHPLDEKQLAALNTEIDNIVTLPELNNLSIIYQIKAVSALVKGKTDESYQAINTGIDLEMSWLNYVLLGKVYEMKGMNREAADAYLTAFNLRPGANTLYWIENGIFQTSVPYVVPYLDKFLASE | 5.6 ± 0.59 | 5.47 ± 0.86 | 5.65 ± 0.78 | 5.484 ± 0.022 | 5.06 ± 0.32 | 12.73 ± 0.03 | 6.18 ± 0.23 | 12.08 ± 0.11 |  |  |  | 
2 | MQQSTPYLSFRGIGKTFPGVKALTDISFDCYAGQVHALMGENGAGKSTLLKILSGNYAPTTGSVVINGQEMSFSDTTAALNAGVAIIYQELHLVPEMTVAENIYLGQLPHKGGIVNRSLLNYEAGLQLKHLGMDIDPDTPLKYLSIGQWQMVEIAKALARNAKIIAFDEPTSSLSAREIDNLFRVIRELRKEGRVILYVSHRMEEIFALSDAITVFKDGRYVKTFTDMQQVDHDALVQAMVGRDIGDIYGWQPRSYGEERLRLDAVKAPGVRTPISLAVRSGEIVGLFGLVGAGRSELMKGMFGGTQITAGQVYIDQQPIDIRKPSHAIAAGMMLCPEDRKAEGIIPVHSVRDNINISARRKHVLGGCVINNGWEENNADHHIRSLNIKTPGAEQLIMNLSGGNQQKAILGRWLSEEMKVILLDEPTRGIDVGAKHEIYNVIYALAAQGVAVLFASSDLPEVLGVADRIVVMREGEIAGELLHEQADERQALSLAMPKVSQAVA [P0AAF3] |  |  | 5.15 | 2.45 ± 0.57 |  | 6.06 |  | 10.5 | 2.228 ± 0.021 | 3.922 ± 0.021 | 5.96 ± 0.79 | 
3 | MQQVFFQETEFLNSVIDYDHKVETENLCLDIAYGTDKNFLFGCGISIASILKYNEGSRLCFHIFTDYFGDDDRKYFDALALQYKTRIKIYLINGDRLRSLPSTKNWTHAIYFRFVIADYFINKAPKVLYLDADIICQGTIEPLINFSFPDDKVAMVVTEGQADWWEKRAHSLGVAGIAKGYFNSGFLLINTAQWAAQQVSARAIAMLNEPEIIKKITHPDQDVLNMLLADKLIFADIKYNTQFSLNYQLKESFINPVTNDTIFIHYIGPTKPWHDWAWDYPVSQAFMEAKNASPWKNTALLKPNNSNQLRYSAKHMLKKHRYLKGFSNYLFYFIEKIKH | 6.72 ± 0.28 |  | 5.66 ± 0.42 | 5.82 ± 0.17 | 5.16 ± 1.2 | 11.7 ± 0.74 | 5.85 ± 0.45 | 11.3 ± 1 | 2.95 ± 0.088 | 5.41 ± 0.61 | 10.4 ± 1.1 | 5.78 ± 0.3
4 | MQREDVLGEALKLLELQGIANTTLEMVAERVDYPLDELRRFWPDKEAILYDALRYLSQQIDVWRRQLMLDETQTAEQKLLARYQALSECVKNNRYPGCLFIAACTFYPDPGHPIHQLADQQKSAAYDFTHELLTTLEVDDPAMVAKQMELVLEGCLSRMLVNRSQADVDTAHRLAEDILRFARCRQGGALT [P0ACU7] | 3.74 ± 0.51 | 3.63 ± 0.25 | 4.07 ± 0.91 | 3.411 ± 0.028 | 3.44 ± 0.037 | 5.51 ± 0.28 | 5.04 ± 0.78 | 12 ± 0.99 | 2.94 ± 0.46 | 4.86 ± 0.17 | 10.4 ± 2.6 | 3.78 ± 0.57
5 | MQRGIVWVVDDDSSIRWVLERALAGAGLTCTTFENGAEVLEALASKTPDVLLSDIRMPGMDGLALLKQIKQRHPMLPVIIMTAHSDLDAAVSAYQQGAFDYLPKPFDIDEAVALVERAISHYQEQQQPRNVQLNGPTTDIIGEAPAMQDVFRIIGRLSRSSISVLINGESGTGKELVAHALHRHSPRAKAPFIALNMAAIPKDLIESELFGHEKGAFTGANTIRQGRFEQADGGTLFLDEIGDMPLDVQTRLLRVLADGQFYRVGGYAPVKVDVRIIAATHQNLEQRVQEGKFREDLFHRLNVIRVHLPPLRERREDIPRLARHFLQVAARELGVEAKLLHPETEAALTRLAWPGNVRQLENTCRWLTVMAAGQEVLIQDLPGELFESTVAESTSQMQPDSWATLLAQWADRALRSGHQNLLSEAQPELERTLLTTALRHTQGHKQEAARLLGWGRNTLTRKLKELGME [P0AFB8] | 5.64 ± 0.8 | 5.18 ± 0.39 | 4.86 ± 0.35 | 4.32 ± 0.052 | 4.72 ± 0.12 | 7.57 ± 0.25 | 4.22 ± 0.085 | 7.58 ± 0.097 | 2.678 ± 0.0012 | 4.85 ± 0.1 | 8.034 ± 0.033 | 5.263 ± 0.02
6 | MQRLFLLVAVMLLSGCLTAPPKEAARPTLMPRAQSYKDLTHLPAPTGKIFVSVYNIQDETGQFKPYPASNFSTAVPQSATAMLVTALKDSRWFIPLERQGLQNLLNERKIIRAAQENGTVAINNRIPLQSLTAANIMVEGSIIGYESNVKSGGVGARYFGIGADTQYQLDQIAVNLRVVNVSTGEILSSVNTSKTILSYEVQAGVFRFIDYQRLLEGEVGYTSNEPVMLCLMSAIETGVIFLINDGIDRGLWDLQNKAERQNDILVKYRHMSVPPES [P0AEA2] |  |  |  |  |  | 4.39 |  |  |  |  |  | 
7 | MQSLTTALENLLRHLSQEIPATPGIRVIDIPFPLKDAFDALSWLASQQTYPQFYWQQRNGDEEAVVLGAITRFTSLDQAQRFLRQHPEHADLRIWGLNAFDPSQGNLLLPRLEWRRCGGKATLRLTLFSESSLQHDAIQAKEFIATLVSIKPLPGLHLTTTREQHWPDKTGWTQLIELATKTIAEGELDKVVLARATDLHFASPVNAAAMMAASRRLNLNCYHFYMAFDGENAFLGSSPERLWRRRDKALRTEALAGTVANNPDDKQAQQLGEWLMADDKNQRENMLVVEDICQRLQADTQTLDVLPPQVLRLRKVQHLRRCIWTSLNKADDVICLHQLQPTAAVAGLPRDLARQFIARHEPFTREWYAGSAGYLSLQQSEFCVSLRSAKISGNVVRLYAGAGIVRGSDPEQEWQEIDNKAAGLRTLLQME | 4.68 ± 0.47 | > 8 | 3.92 ± 0.49 | 3.94 ± 0.32 | 3.92 ± 0.21 | 6.68 ± 0.27 | 5.06 ± 0.77 | 11.1 ± 0.5 | 2.96 ± 0.1 | 4.82 ± 0.16 | 10.2 ± 0.62 | 4.47 ± 0.15

— the supplement of paper PMC11246515
